Laboratory results: patent publication US20110117113A1, “IMMUNOGLOBULIN SINGLE VARIABLE DOMAIN DIRECTED AGAINST HUMAN CXCR4 AND OTHER CELL ASSOCIATED PROTEINS AND METHODS TO GENERATE THEM” (priority 2009, published 2011)
Positions count from the first letter of the chain named.

Tests used:
Assay in all cases: immunofluorescence on HEK-293T expressing the clone, normalised to wild type
[1] = target: T1, CXCR4 mutation library clone 1057 (K230E, S178R) (human, UniProt P61073 1-352)
T1 chain: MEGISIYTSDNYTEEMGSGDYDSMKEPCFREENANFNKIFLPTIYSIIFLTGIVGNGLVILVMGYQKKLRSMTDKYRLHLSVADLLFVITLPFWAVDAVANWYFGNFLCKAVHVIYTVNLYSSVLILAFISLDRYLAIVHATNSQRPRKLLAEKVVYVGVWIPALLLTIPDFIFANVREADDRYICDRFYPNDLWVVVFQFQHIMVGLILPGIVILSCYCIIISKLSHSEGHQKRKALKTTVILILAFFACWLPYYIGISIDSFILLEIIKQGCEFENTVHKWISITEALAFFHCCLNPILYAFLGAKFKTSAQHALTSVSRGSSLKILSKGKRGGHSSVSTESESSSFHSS

[2] = target: CXCR4 mutation library clone 2184 (P191T) (human, UniProt P61073 1-352)
[3] = target: CXCR4 mutation library clone 914 (N192K) (human, UniProt P61073 1-352)
[4] = target: CXCR4 mutation library clone 2270 (V196E) (human, UniProt P61073 1-352)
[5] = target: T2, CXCR4 mutation library clone 185 (E277A, I245V, N298S) (human, UniProt P61073 1-352)
T2 chain: T1 chain with R178S, E230K, I245V, E277A, N298S

[6] = target: T3, CXCR4 mutation library clone 709 (P163L, S178I) (human, UniProt P61073 1-352)
T3 chain: T1 chain with P163L, R178I, E230K

[7] = target: T4, CXCR4 mutation library clone 2834 (E179V, G258E) (human, UniProt P61073 1-352)
T4 chain: T1 chain with R178S, E179V, E230K, G258E

[8] = target: CXCR4 mutation library clone 2396 (S178C) (human, UniProt P61073 1-352)
[9] = target: T5, CXCR4 mutation library clone 913 (F189S, K308R) (human, UniProt P61073 1-352)
T5 chain: T1 chain with R178S, F189S, E230K, K308R

[10] = target: T6, CXCR4 mutation library clone 414 (C218R, E179V, S351T) (human, UniProt P61073 1-352)
T6 chain: T1 chain with R178S, E179V, C218R, E230K, S351T

B1: Nanobody 238D4 (VHH)
VHH: EVQLMESGGGLVQAGGSLRLSCAASGRTFNNYAMGWFRRAPGKEREFVAAITRSGVRSGVSAIYGDSVKDRFTISRDNAKNTLYLQMNSLKPEDTAVYTCAASAIGSGALRRFEYDYSGQGTQVTVSS
Question: What does the source list for B1?
Answer: % immunofluorescence [1]: 11.4%; % immunofluorescence [2]: 124%; % immunofluorescence [3]: 55.8%; % immunofluorescence [4]: 94%; % immunofluorescence [5]: 69.3%; % immunofluorescence [6]: 30%; % immunofluorescence [7]: 19.5%; % immunofluorescence [8]: 28.2%; % immunofluorescence [9]: -16.9%; % immunofluorescence [10]: 8%
